Measured values published in the supplement of paper PMC9170038.

System: K4 kissing-loop RNA reporter
Experiment: apparent KD of K4 kissing-loop reporter; higher = weaker reporter binding
Conditions: Eterna round: R107
Experimental: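 RNA-MaP round R107: designed RNA switches with theophylline, tryptophan, arginine or FMN aptamers are transcribed on-chip within common flanks. They are titrated with a labelled K4 kissing-loop RNA reporter in RNA-MaP buffer (100 mM Tris pH 7.5, 80 mM KCl, 4 mM MgCl2), without ligand or with the indicated ligand. Median apparent KD per design.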

[1] = input ligand: theophylline 20 uM
[2] = input ligand: tryptophan 2.4 mM
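Further: bound reporter read as fluorescence of individual clusters on recovered sequencing chips by microscopy, with normalized cluster intensities fitted with a binding model.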

CGCAGUGAUGUUGCUAUUAUUCUUGGUUAACGAGGACCGGUACGGCCGCCACUCGAUUUCUGUCUAGUCCAGUGUUUUUUUGAGU [whbob_EX_Tryp_A_t7]
apparent KD of K4 kissing-loop reporter (input ligand: FMN 200 uM): 363 nM | apparent KD of K4 kissing-loop reporter (input ligand: arginine 13.2 mM): 464 nM | apparent KD of K4 kissing-loop reporter (input ligand: none): 439 nM | apparent KD of K4 kissing-loop reporter [1]: 492 nM | apparent KD of K4 kissing-loop reporter [2]: 263 nM

GUCAAGGGUGCGGCCGCCACUUCUAGUGAUGUUAGUUUGUCUUCGUUCAACCGGCGUCUGCACGCAAGGACCGGGCACCAGCGAC [theeternabot_exclusion_KL_Trp_B_10]
apparent KD of K4 kissing-loop reporter (input ligand: FMN 200 uM): 552 nM | apparent KD of K4 kissing-loop reporter (input ligand: arginine 13.2 mM): 350 nM | apparent KD of K4 kissing-loop reporter (input ligand: none): 567 nM | apparent KD of K4 kissing-loop reporter [1]: 636 nM | apparent KD of K4 kissing-loop reporter [2]: 360 nM

UGUCAUGGAAACAUGAACGUUGAAAUAAAUCGAGGACCGGUACGGCCGCCACUCGUAUAGCGGUCAGUGAUGUUGACUGUAAUAA [KL-SSTryp-A form2 sub9]
apparent KD of K4 kissing-loop reporter (input ligand: FMN 200 uM): 94.9 nM | apparent KD of K4 kissing-loop reporter (input ligand: arginine 13.2 mM): 112 nM | apparent KD of K4 kissing-loop reporter (input ligand: none): 110 nM | apparent KD of K4 kissing-loop reporter [1]: 132 nM | apparent KD of K4 kissing-loop reporter [2]: 98.7 nM

UAACAGUCUACGGCCGCCACUGACAAUCGGCAAGCAACAUGUGGGUGCGUAGUGAUGUUACAUAUCAGGACCGGGUAAGACAAAU [theeternabot_sameState_KL_Trp_B_32]
apparent KD of K4 kissing-loop reporter (input ligand: FMN 200 uM): 327 nM | apparent KD of K4 kissing-loop reporter (input ligand: arginine 13.2 mM): 392 nM | apparent KD of K4 kissing-loop reporter (input ligand: none): 235 nM | apparent KD of K4 kissing-loop reporter [1]: 345 nM | apparent KD of K4 kissing-loop reporter [2]: 438 nM

UGACUGGAUUGAAGGAGCGCUAAACUCCUAGUGAUGUUAGGGACACGAGACAAAGUCUCGAGGCAGGUAGGUCGCAAUCUAGUCU [FiskerMod 6 - Jieux - Same State - Arginine B]
apparent KD of K4 kissing-loop reporter (input ligand: FMN 200 uM): 309 nM | apparent KD of K4 kissing-loop reporter (input ligand: arginine 13.2 mM): 225 nM | apparent KD of K4 kissing-loop reporter (input ligand: none): 247 nM | apparent KD of K4 kissing-loop reporter [1]: 296 nM | apparent KD of K4 kissing-loop reporter [2]: 249 nM

UACGCUUACUUGCGCGGUCCGAUUAACGAUACCAGCGAAGAAGCCCGCCCUUGGCAGCGUUAUAGAGUGAUGUUCACGGAGAUUA [theeternabot_sameState_KL_Theo_A_12]
apparent KD of K4 kissing-loop reporter (input ligand: FMN 200 uM): 1100 nM | apparent KD of K4 kissing-loop reporter (input ligand: arginine 13.2 mM): 872 nM | apparent KD of K4 kissing-loop reporter (input ligand: none): 989 nM | apparent KD of K4 kissing-loop reporter [1]: 1070 nM | apparent KD of K4 kissing-loop reporter [2]: 874 nM

GAUAAAUUGAUGCGUAGUGAUGCACGGGAAGGAGCGCGUUUUUUCGCAGGUAGGUCGCCCGACUGCGCGUUUCGAGUGAUGUUCG [5.)]
apparent KD of K4 kissing-loop reporter (input ligand: FMN 200 uM): 192 nM | apparent KD of K4 kissing-loop reporter (input ligand: arginine 13.2 mM): 198 nM | apparent KD of K4 kissing-loop reporter (input ligand: none): 193 nM | apparent KD of K4 kissing-loop reporter [1]: 197 nM | apparent KD of K4 kissing-loop reporter [2]: 172 nM

UGAUACCAGACUGAUACCAGCCAGUGAUGUUGGCUAAGCCAAAUAGGAGUCAAAGACUCCGGCCCUUGGCAGCAGUCUGGUAUCU [TheoBX 5 #SwitchBubble #StaticStem]
apparent KD of K4 kissing-loop reporter (input ligand: FMN 200 uM): 127 nM | apparent KD of K4 kissing-loop reporter (input ligand: arginine 13.2 mM): 117 nM | apparent KD of K4 kissing-loop reporter (input ligand: none): 122 nM | apparent KD of K4 kissing-loop reporter [1]: 124 nM | apparent KD of K4 kissing-loop reporter [2]: 127 nM

CGCGCGCGUUUGAGAGGGUGCGCGCGAAGUGAGGAUAUUUAGGGAGAAAGAAGGCACUAUAAAAUAUAGUGAUGUUAUAUAAGGG [SSFMNA.G]
apparent KD of K4 kissing-loop reporter (input ligand: FMN 200 uM): 431 nM | apparent KD of K4 kissing-loop reporter (input ligand: arginine 13.2 mM): 114 nM | apparent KD of K4 kissing-loop reporter (input ligand: none): 382 nM | apparent KD of K4 kissing-loop reporter [1]: 187 nM | apparent KD of K4 kissing-loop reporter [2]: 344 nM

GGGAGUAGUGCGGCCGCCACUGUGAAAGUAGAAGAAUAUAGUGAUGUUAUAUAGGAACAAAAGAAUAGGACCGGGCAUUAGAUUU [SSTRyptB.X]
apparent KD of K4 kissing-loop reporter (input ligand: FMN 200 uM): 311 nM | apparent KD of K4 kissing-loop reporter (input ligand: arginine 13.2 mM): 260 nM | apparent KD of K4 kissing-loop reporter (input ligand: none): 304 nM | apparent KD of K4 kissing-loop reporter [1]: 299 nM | apparent KD of K4 kissing-loop reporter [2]: 198 nM

GUAUCGCUAGGAGGAUAUGUCGUUUUUCAUAGCAAUGGCUGUGCGGAGUGAUGUUCCGAUUUACCGGCAGAAGGCCUAGUGAUAC [FMN B 28]
apparent KD of K4 kissing-loop reporter (input ligand: FMN 200 uM): 118 nM | apparent KD of K4 kissing-loop reporter (input ligand: arginine 13.2 mM): 104 nM | apparent KD of K4 kissing-loop reporter (input ligand: none): 92.9 nM | apparent KD of K4 kissing-loop reporter [1]: 106 nM | apparent KD of K4 kissing-loop reporter [2]: 89.8 nM

UUCGUAGUAGGAAACUAUUACGAAAAGGAAGGAGCGGCGAAGAAGCCAGGUAGGUCGCCUAUUGACAGUGAUGUUGUUAUGUAGA [#9]
apparent KD of K4 kissing-loop reporter (input ligand: FMN 200 uM): 172 nM | apparent KD of K4 kissing-loop reporter (input ligand: arginine 13.2 mM): 341 nM | apparent KD of K4 kissing-loop reporter (input ligand: none): 241 nM | apparent KD of K4 kissing-loop reporter [1]: 360 nM | apparent KD of K4 kissing-loop reporter [2]: 142 nM

UGGAGUUGACGAAAAGUCAACUCCUGAGAUACCAGUGACGAAAGUCACCCUUGGCAGCUCACUGGCAGUGAUGUUGCUAUAUAAA [KL-SSTheo-A3]
apparent KD of K4 kissing-loop reporter (input ligand: FMN 200 uM): 85.5 nM | apparent KD of K4 kissing-loop reporter (input ligand: arginine 13.2 mM): 68.9 nM | apparent KD of K4 kissing-loop reporter (input ligand: none): 95.3 nM | apparent KD of K4 kissing-loop reporter [1]: 211 nM | apparent KD of K4 kissing-loop reporter [2]: 101 nM

AGAUUCGACACGGCCGCCACUCGUGGAUCUUGGUUGAGAGAUGAAAUAGAGUGAUGUUCUAAUACGAGGACCGGGUGUUGAGUCU [KL-SSTryp-B23]
apparent KD of K4 kissing-loop reporter (input ligand: FMN 200 uM): 221 nM | apparent KD of K4 kissing-loop reporter (input ligand: arginine 13.2 mM): 165 nM | apparent KD of K4 kissing-loop reporter (input ligand: none): 200 nM | apparent KD of K4 kissing-loop reporter [1]: 177 nM | apparent KD of K4 kissing-loop reporter [2]: 174 nM

UGACAUUGCUCAGAUACCAGACAUGAGCAUCAGCCAUGUACCAAGAAAACGUACAUAAAUGUCCCUUGGCAGCUGAGCAAUGUCU [TheoBX 10]
apparent KD of K4 kissing-loop reporter (input ligand: FMN 200 uM): 83.5 nM | apparent KD of K4 kissing-loop reporter (input ligand: arginine 13.2 mM): 39.8 nM | apparent KD of K4 kissing-loop reporter (input ligand: none): 59.9 nM | apparent KD of K4 kissing-loop reporter [1]: 89 nM | apparent KD of K4 kissing-loop reporter [2]: 63.8 nM

AAGCCAGAGAUUGCUGCGGGUUCCAGAGAUACCAGCCGUAUUGAAGGCCCUUGGCAGCUCGAGUGAUGUUCGAGCCGUCUCUAGC [Bisore]
apparent KD of K4 kissing-loop reporter (input ligand: FMN 200 uM): 126 nM | apparent KD of K4 kissing-loop reporter (input ligand: arginine 13.2 mM): 101 nM | apparent KD of K4 kissing-loop reporter (input ligand: none): 124 nM | apparent KD of K4 kissing-loop reporter [1]: 123 nM | apparent KD of K4 kissing-loop reporter [2]: 110 nM

AAGCAGUCACUCGCAGCCAUCGAAGAUGGGCGAGGACCGGUACGGCCGCCACUCGGAGUGAUGUUCCGCAGACUGCAAAAUAAAA
apparent KD of K4 kissing-loop reporter (input ligand: FMN 200 uM): 536 nM | apparent KD of K4 kissing-loop reporter (input ligand: arginine 13.2 mM): 343 nM | apparent KD of K4 kissing-loop reporter (input ligand: none): 350 nM | apparent KD of K4 kissing-loop reporter [1]: 437 nM | apparent KD of K4 kissing-loop reporter [2]: 428 nM

AAACGCUUGAAUAACAAGCGAAAUAAAAUUCGAGGACCGGUACGGCCGCCACUCGGGCUAACUGCGAGUGAUGUUCGAAAAUAAA [Mat - Mod of OpenEnded 3 - D17]
apparent KD of K4 kissing-loop reporter (input ligand: FMN 200 uM): 156 nM | apparent KD of K4 kissing-loop reporter (input ligand: arginine 13.2 mM): 191 nM | apparent KD of K4 kissing-loop reporter (input ligand: none): 257 nM | apparent KD of K4 kissing-loop reporter [1]: 405 nM | apparent KD of K4 kissing-loop reporter [2]: 73.2 nM

CACCAUGAAUUCUCUAGGAGUGAUGUUUUUCGAGGACCGGUACGGCCGCCACUCGGACGAGGACCGUGGGAGCGGCGAACCGACU [ddfgmullin]
apparent KD of K4 kissing-loop reporter (input ligand: FMN 200 uM): 172 nM | apparent KD of K4 kissing-loop reporter (input ligand: arginine 13.2 mM): 74.7 nM | apparent KD of K4 kissing-loop reporter (input ligand: none): 208 nM | apparent KD of K4 kissing-loop reporter [1]: 334 nM | apparent KD of K4 kissing-loop reporter [2]: 150 nM

GCCGUAGAUUGAAGGAGCGCUAGUCUACGAUGACACACAGUGAUGUUGUGCGUGAUUUCAUAGCAGGUAGGUCGCAAUCUACGGC
apparent KD of K4 kissing-loop reporter (input ligand: FMN 200 uM): 230 nM | apparent KD of K4 kissing-loop reporter (input ligand: arginine 13.2 mM): 195 nM | apparent KD of K4 kissing-loop reporter (input ligand: none): 214 nM | apparent KD of K4 kissing-loop reporter [1]: 186 nM | apparent KD of K4 kissing-loop reporter [2]: 183 nM

AUCCAUAGUGAUGUUGUGAGCGGAGGCACCAAGGAUAUUGCCAGCCCAAGAAGGUGGGUCCCACACACCAGGCAUACAAGUCCGG [theeternabot_exclusion_KL_FMN_A_43]
apparent KD of K4 kissing-loop reporter (input ligand: FMN 200 uM): 1040 nM | apparent KD of K4 kissing-loop reporter (input ligand: arginine 13.2 mM): 845 nM | apparent KD of K4 kissing-loop reporter (input ligand: none): 1160 nM | apparent KD of K4 kissing-loop reporter [1]: 944 nM | apparent KD of K4 kissing-loop reporter [2]: 837 nM

GCAAAGGCCCAUCGGAAUUCGAGACCAGCACGAGGACCGGUACGGCCGCCACUCGUGCAGUGAUGUUGCACGAAUGGGAAACCGC [Oninanso]
apparent KD of K4 kissing-loop reporter (input ligand: FMN 200 uM): 112 nM | apparent KD of K4 kissing-loop reporter (input ligand: arginine 13.2 mM): 103 nM | apparent KD of K4 kissing-loop reporter (input ligand: none): 125 nM | apparent KD of K4 kissing-loop reporter [1]: 118 nM | apparent KD of K4 kissing-loop reporter [2]: 147 nM
